Data reported in US20060233822A1 (YANG SHENG TANG, published 2006).

How the values were obtained:
[1] = biological target: T1, NE2 mutant 601LQ (hepatitis E virus, UniProt P29326 394-600); experiment: WB
T1 construct: position counted on HEV ORF2
T1 chain: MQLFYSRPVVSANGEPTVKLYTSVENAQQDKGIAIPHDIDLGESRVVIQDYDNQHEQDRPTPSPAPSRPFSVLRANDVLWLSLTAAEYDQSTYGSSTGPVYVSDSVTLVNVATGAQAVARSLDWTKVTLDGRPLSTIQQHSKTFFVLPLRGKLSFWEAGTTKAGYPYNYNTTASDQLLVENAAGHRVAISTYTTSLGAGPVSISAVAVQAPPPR

[2] = biological target: T2, NE2 mutant 601LE (hepatitis E virus, UniProt P29326 394-600); experiment: WB
T2 construct: position counted on HEV ORF2
T2 chain: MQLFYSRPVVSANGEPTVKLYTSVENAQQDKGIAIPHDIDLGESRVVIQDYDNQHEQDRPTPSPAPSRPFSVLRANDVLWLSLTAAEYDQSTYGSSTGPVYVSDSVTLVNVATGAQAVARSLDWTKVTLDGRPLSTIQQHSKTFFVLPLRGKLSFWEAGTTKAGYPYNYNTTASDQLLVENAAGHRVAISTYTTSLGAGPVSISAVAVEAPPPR

[3] = biological target: T3, NE2 mutant 601LC (hepatitis E virus, UniProt P29326 394-600); experiment: WB
T3 construct: position counted on HEV ORF2
T3 chain: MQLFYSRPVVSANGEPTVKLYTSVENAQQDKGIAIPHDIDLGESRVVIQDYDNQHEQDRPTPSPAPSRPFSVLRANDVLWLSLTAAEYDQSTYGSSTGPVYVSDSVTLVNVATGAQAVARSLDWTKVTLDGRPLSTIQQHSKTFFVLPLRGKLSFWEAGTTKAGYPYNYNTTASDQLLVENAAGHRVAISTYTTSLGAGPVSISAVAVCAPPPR

[4] = biological target: T4, NE2 mutant 601LP (hepatitis E virus, UniProt P29326 394-600); experiment: WB
T4 construct: position counted on HEV ORF2
T4 chain: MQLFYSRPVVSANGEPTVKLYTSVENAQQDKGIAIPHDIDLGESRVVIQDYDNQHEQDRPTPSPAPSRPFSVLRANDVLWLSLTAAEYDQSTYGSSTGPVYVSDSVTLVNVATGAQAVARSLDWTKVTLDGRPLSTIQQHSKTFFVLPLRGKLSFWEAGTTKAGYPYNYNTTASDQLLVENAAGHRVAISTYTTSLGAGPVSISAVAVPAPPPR

[5] = biological target: T5, NE2 mutant 601LI (hepatitis E virus, UniProt P29326 394-600); experiment: WB
T5 chain: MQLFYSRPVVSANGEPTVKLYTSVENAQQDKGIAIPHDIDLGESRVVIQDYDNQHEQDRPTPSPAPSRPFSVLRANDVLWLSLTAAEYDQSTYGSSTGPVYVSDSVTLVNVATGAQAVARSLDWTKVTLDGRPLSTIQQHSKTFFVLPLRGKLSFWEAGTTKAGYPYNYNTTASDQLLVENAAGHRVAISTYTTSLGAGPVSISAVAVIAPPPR

[6] = biological target: T6, NE2 mutant 601LG (hepatitis E virus, UniProt P29326 394-600); experiment: WB
T6 construct: position counted on HEV ORF2
T6 chain: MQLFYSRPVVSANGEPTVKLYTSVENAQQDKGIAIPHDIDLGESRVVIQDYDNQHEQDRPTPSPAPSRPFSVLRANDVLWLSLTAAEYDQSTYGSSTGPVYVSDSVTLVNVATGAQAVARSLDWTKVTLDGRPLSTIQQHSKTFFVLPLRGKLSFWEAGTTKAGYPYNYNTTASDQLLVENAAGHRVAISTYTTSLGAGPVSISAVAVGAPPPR

[7] = biological target: 7-peptide QPATWNT; experiment: phage display panning on coated MAb; 1 clone
[8] = biological target: 7-peptide GGWGPFA; experiment: phage display panning on coated MAb; 1 clone
[9] = biological target: 7-peptide ALWGPTS; experiment: phage display panning on coated MAb; 1 clone
[10] = biological target: 7-peptide TNLRLDS; experiment: phage display panning on coated MAb; 1 clone
[11] = biological target: 7-peptide MLWGPSD; experiment: phage display panning on coated MAb; 1 clone
[12] = biological target: T7, NE2 mutant 599AE (hepatitis E virus, UniProt P29326 394-603); experiment: Western blot of NE2 mutant proteins with monoclonal antibody 16D7
T7 construct: position counted on HEV ORF2
T7 chain: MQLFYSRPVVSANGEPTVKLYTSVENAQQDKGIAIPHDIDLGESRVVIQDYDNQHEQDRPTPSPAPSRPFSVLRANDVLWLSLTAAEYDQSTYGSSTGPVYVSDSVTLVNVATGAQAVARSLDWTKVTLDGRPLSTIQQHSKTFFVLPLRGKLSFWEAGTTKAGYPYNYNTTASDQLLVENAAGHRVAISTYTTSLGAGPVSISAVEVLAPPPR

[13] = biological target: T8, NE2 mutant 598VE (hepatitis E virus, UniProt P29326 394-603); experiment: as above
T8 construct: position counted on HEV ORF2
T8 chain: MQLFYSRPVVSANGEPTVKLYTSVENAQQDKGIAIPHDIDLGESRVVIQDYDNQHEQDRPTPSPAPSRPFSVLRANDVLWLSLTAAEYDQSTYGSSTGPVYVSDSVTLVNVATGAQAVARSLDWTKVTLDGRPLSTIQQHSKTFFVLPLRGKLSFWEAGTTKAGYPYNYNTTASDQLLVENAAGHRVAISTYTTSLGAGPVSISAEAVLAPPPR

[14] = biological target: T9, NE2 mutant 597AE (hepatitis E virus, UniProt P29326 394-603); experiment: as above
T9 construct: position counted on HEV ORF2
T9 chain: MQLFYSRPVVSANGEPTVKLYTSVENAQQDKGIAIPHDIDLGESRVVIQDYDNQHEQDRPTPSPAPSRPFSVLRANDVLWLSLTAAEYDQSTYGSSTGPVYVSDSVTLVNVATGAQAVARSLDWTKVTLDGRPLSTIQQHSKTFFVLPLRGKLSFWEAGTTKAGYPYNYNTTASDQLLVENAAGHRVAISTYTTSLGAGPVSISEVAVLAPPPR

[15] = biological target: 7-peptide YQDSAKT; experiment: phage display panning on coated MAb; 3 clones

Measured: binding result

B1: monoclonal antibody 16D7 (antibody, V domains shown)
VH: EVQLQQSGPELVKPGASVKMSCKASGYKFTSYVMHWVKQKPGQGLEWIGYINPSNDNIKYNEKFKGKAILTLDKSSSTAYMAFSSLTSEDSAVYYCATLTGVDYWGQGTTLTVSS
VL: DVVMTQTPLSLSVTIGQPASISCKSSQSLLYRNGKIYLNWLQQRPGQAPKHLMSQVSKLDPGIPDRFSGSGSETDFTLKISRVEAEDLGVYYCLQGTHYPYTFGGGTKLEIKR
notes: also called MAb 16D7; HRP-16D7
binds: [1] | [2] | [3] | [4] | [5] | [6] | [7] | [8] | [9] | [10] | [11] | [12] | [13] | [14] | [15]
